From paper PMC7293249

Columns and labels:
[1] = target: human activated protein C (human) (UniProt P04070)
[2] = target: human activated protein C (human) (UniProt P04070); remark: listed apart in the source
[3] = target: human activated protein C (human) (UniProt P04070); remark: listed apart in the source
[4] = target: human activated protein C (human) (UniProt P04070); remark: listed apart in the source
[5] = target: human activated protein C (human) (UniProt P04070); assay: ELISA; hAPC or hPC coated directly on Maxisorp plates at 100 ng/well in PBS/Ca2+; antibodies titrated, 1 h at RT; detection with HRP anti-human Fc
[6] = target: human activated protein C (human) (UniProt P04070); assay: ELISA; APC-binding ELISA of the purified Fabs on human APC and Gla-domainless APC; format not told

Binder | inhibition of APC amidolytic activity (Spectrozyme PCa), IC50 [1] [nM] | maximal inhibition of APC amidolytic activity (Spectrozyme PCa), mAb 0.5-500 nM [1] [%] | TM–TGA in normal human plasma, increase of thrombin generation, EC50 [2] [nM] | Protac-aPTT in normal human plasma, inhibition of APC anticoagulant activity, IC50 [3] [nM] | Protac-aPTT in normal human plasma, maximal inhibition of APC anticoagulant activity [3] [%] | Protac-aPTT in FVIII-antibody-treated normal human plasma, IC50 [4] [nM] | Protac-aPTT in hemophilia A plasma, inhibition of APC activity, IC50 [4] [nM] | Protac-aPTT in hemophilia A plasma, maximal inhibition of APC activity [4] [%] | EC50 [5] [nM] | EC50 [6] [nM]
type I anti-APC mAb TPP-2312 (BAY1316786) (antibody, V domains shown) VH: EVQLLESGGGLVQPGGSLRLSCAASGFTFSSYWMSWVRQAPGKGLEWVSGVSWNGARTHYADSVKGRFTISRDNSKNTLYLQMNSLRAEDTAVYYCALTGRSGWMRFPNWFDPWGQGTLVTVSS VL: QSVLTQPPSVSGAPGQRVTISCTGSSSNIGAAYDVHWYQQLPGTAPKLLIYGNNKRPSGVPDRFSGSKSGTSASLAITGLQAEDEADYYCQSYDSSLSGSVFGGGTKLTVL | 4.8 | 98 | 38 | 7 | 93 | 5 | 5 | 87 | 0.4 | 
C25K23Fab (type I Fab, TTP-2781) (Fab, V domains shown) VH: EVQLLESGGGLVQPGGSLRLSCAASGFTFSSYWMSWVRQAPGKGLEWVSGVSWNGSRTHYADSVKGRFTISRDNSKNTLYLQMNSLRAEDTAVYYCALTGRSGWMRFPNWFDPWGQGTLVTVTS VL: QSVLTQPPSASGTPGQRVTISCTGSSSNIGAAYDVHWYQQLPGTAPKLLIYGNNKRPSGVPDRFSGSKSGTSASLAISGLRSEDEADYYCQSYDSSLSGSVFGGGTKLTVL |  |  |  |  |  |  |  |  |  | 2 to 4
